Changes are numbered by the printed parent chain.

Experiment [1] deals with T1, human CD47 (human, UniProt Q08722 19-141, limits assumed).
T1 construct: also called hCD47
In words: surface plasmon resonance.

The target of experiment [2] is T1, human CD47. Put plainly: CD47/SIRPα binding assay, inhibition of SIRPα binding to CD47; format not stated for this figure.
In experiment [3] the target is T1, human CD47. In words: screening of Examples 3 to 6.
For experiment [4], the target named is T2, cynomolgus monkey CD47 on CD4+ T cells (cynomolgus monkey, UniProt A0A5F8AK49 19-323 (rhesus entry)).
T2 construct: whole, on cells; also called cynomolgus CD47
In words: flow cytometry on CD4+ T cells in cynomolgus PBMC.

The target in experiment [5] is T3, human CD47 on the cell surface (human, UniProt Q08722 19-323).
T3 construct: whole, on cells; also called huCD47; native CD47
Put plainly: CD47-SIRPα competitive binding assay: His-tagged soluble human SIRPα (200 ng/ml) on hCD47-transfected CHO cells, antibody 3.3 pM-330 nM; blocked ligand SIRPα.

The target in experiment [6] is T1, human CD47. In words: affinity maturation by phage display on hCD47; positive in hCD47-SIRPα inhibition screen, reformatted as IgG.
In experiment [7] the target is T3, human CD47 on the cell surface. Put plainly: flow cytometry, CHO cells stably transfected with human CD47, antibody 10 µg/ml, Cy-5 anti-human Fc; non-transfected CHO cells as control. The procedure:
Non-transfected CHO cells were used as control. In brief, purified CD47 Mabs were incubated with CHO-huCD47 cells at a final concentration of 10 μg/ml for 30 minutes. After two washes, bound CD47 antibodies were detected using a Cy-5 conjugated anti-human Fc secondary antibody (BD biosciences).
For orientation: In flow cytometry, cells or beads pass a laser one at a time.

In experiment [8] the target is T4, human CD19 on Raji cells (human, UniProt P15391 20-556).
T4 construct: whole, on cells; also called native form of hCD19
T4 sequence (looked up): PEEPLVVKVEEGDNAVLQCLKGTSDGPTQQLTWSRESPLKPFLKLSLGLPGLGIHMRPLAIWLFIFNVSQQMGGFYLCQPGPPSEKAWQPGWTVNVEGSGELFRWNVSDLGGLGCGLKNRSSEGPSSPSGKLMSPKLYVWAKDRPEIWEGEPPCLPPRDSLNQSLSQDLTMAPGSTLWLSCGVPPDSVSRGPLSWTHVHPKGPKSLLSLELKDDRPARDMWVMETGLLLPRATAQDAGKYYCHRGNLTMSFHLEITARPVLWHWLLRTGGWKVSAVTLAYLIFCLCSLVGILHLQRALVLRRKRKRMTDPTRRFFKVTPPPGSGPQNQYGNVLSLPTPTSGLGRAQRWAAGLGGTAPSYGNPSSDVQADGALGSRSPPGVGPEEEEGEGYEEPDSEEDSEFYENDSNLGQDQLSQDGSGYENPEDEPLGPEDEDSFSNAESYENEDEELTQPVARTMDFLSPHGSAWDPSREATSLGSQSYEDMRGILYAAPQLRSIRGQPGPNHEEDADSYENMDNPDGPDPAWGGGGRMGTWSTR
In words: FACS on Raji cells (CD19-positive), dose-response.

Experiment [9] addresses T3, human CD47 on the cell surface. Put plainly: adsorption on erythrocytes: antibody in human whole blood, 30 min at 37 °C, antibody left in plasma measured by ELISA. As to the method:
(§1) With more than 5 billion cells per ml of blood, and 25,000 CD47 molecules per cell, erythrocytes represent potentially the major antigen sink for CD47-binding antibodies. To assess the effect of erythrocyte adsorption, CD47 antibodies were incubated with whole blood. Following incubation, the fraction of CD47 antibodies remaining in the plasma was determined by ELISA.
(§2) In brief, 200 μl of whole blood containing an anti-coagulant was mixed with 20 μl of antibody ([…] in PBS) and incubated for 30 minutes at 37° C. with shaking. The plasma was then separated from the cells by centrifugation, and the concentration of unbound antibody determined by ELISA.
On the technique in general: An ELISA detects its analyte on a solid surface through an enzyme-linked reagent.

For experiment [10], the target named is T5, human CD19 (human, UniProt P15391 20-291, limits assumed).
T5 construct: also called hCD19
T5 sequence (looked up): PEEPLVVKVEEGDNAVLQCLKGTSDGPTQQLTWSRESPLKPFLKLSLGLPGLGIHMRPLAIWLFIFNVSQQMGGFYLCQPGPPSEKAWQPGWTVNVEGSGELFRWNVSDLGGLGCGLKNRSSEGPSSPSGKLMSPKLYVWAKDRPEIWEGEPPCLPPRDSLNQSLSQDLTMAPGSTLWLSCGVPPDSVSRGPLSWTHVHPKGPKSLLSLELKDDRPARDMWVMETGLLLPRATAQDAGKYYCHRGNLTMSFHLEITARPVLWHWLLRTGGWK
Put plainly: second round of affinity maturation (from D11).

The target of experiment [11] is T3, human CD47 on the cell surface. Put plainly: FACS on DS-1 cells (CD19-negative, CD47-positive), human IgG1 format, 0.01-10 µg/ml. As to the method: (§3) The graphs in FIGS. 9A-9C present FACS profiles generated with monovalent and bispecific antibodies binding to CD19-negative B-NHL cells (DS-1) and CD19-positive Burkitt lymphoma cells (Raji). All antibodies were human IgG1 format and were tested at four concentrations as indicated.
(§4) Two types of cells were used, a CD19-positive Burkitt lymphoma cell line Raji (expressing about 65,000 CD47 molecules per cell) and the CD19-negative B-NHL cell line DS-1 (expressing about 150,000 CD47 molecules per cell) as a control.

In experiment [12] the target is T4, human CD19 on Raji cells. In words: FACS on Raji cells (CD19-positive, CD47-positive), human IgG1 format, 0.01-10 µg/ml; both targets are on the cells, the filing ascribes the binding to co-engagement driven mainly by the CD19 arm. As to the method:
as §3, §4

The target of experiment [13] is T3, human CD47 on the cell surface. In words: adsorption on erythrocytes: antibody 10 µg/ml in human whole blood, 30 min at 37 °C, antibody left in plasma measured by ELISA. As to the method:
as §1, §2

B1: 5A3 antibody (antibody, human IgG1, kappa, V domains shown)
VH: not shown
VL: DIQMTQSPSSLSASVGDRVTITCQASQDINKYLNWYQQKPGKAPKLLIYGASRLETGVPSRFSGSGSGTDFTFTISSLQPEDIATYYCQQKHPRGPRTFGQGTKVEIKR
notes: IgG, common heavy chain, kappa light chain
Turning to B1, the Kd in experiment [1] was about 23.6 nM. In addition, the “IC50 (read off the curve)” value in experiment [2] was about 0.08 nM.

B2: Ke8 antibody (antibody, human IgG1, kappa, V domains shown)
VH: not shown
VL: DIQMTQSPSSLSASVGDRVTITCRASQSISSYLNWYQQKPGKAPKLLIYAASSLQSGVPSRFSGSGSGTDFTLTISSLQPEDFATYYCQQFHKRRPQTFGQGTKVEIKR
notes: IgG, kappa (IGVK1-39)
Regarding B2, the binding result in experiment [3] was “binds”; in [4], “no binding (tested: 0.005 mg/ml)”; in [5], “binds”.

B3: Ka3 antibody (antibody, human IgG1, kappa, V domains shown)
VH: not shown
VL: B2 VL with F91M, K93P, R95A, Q97K
notes: IgG, kappa (IGVK1-39)
Turning to B3, the binding result in experiment [3] and in experiment [5] was “binds” throughout.

B4: Ke8A2 antibody (antibody, human IgG1, kappa, V domains shown)
VH: not shown
VL: B2 VL with S30D, S31R, F91K, K93P, R95G, Q97R
notes: IgG; also called KE8-P2A2; KE8A25
With B4, the binding result in experiment [6] and in [7] was “binds” each time.

B5: 5A3-M5 antibody (antibody, human IgG1, kappa, V domains shown)
VH: not shown
VL: B1 VL with G95Y
notes: IgG, variant of 5A3 with changed VL
The molecule B5 came in with a Kd in [1] of about 2840 nM. Also, the “IC50 (read off the curve)” value in [2] is about 3 nM.

B6: Kc4 antibody (antibody, human IgG1, lambda, V domains shown)
VH: not shown
VL: QSALTQPASVSGSPGQSITISCTGTSSDVGGYNYVSWYQQHPGKAPKLMIYEVSNRPSGVSNRFSGSKSGNTASLTISGLQAEDEADYYCSSYDWWFRPKVFGGGTKLTVLG
notes: IgG, lambda (IGVL2-14)
On to B6, for which the binding result in experiment [3] and in experiment [5] was “binds” each time.

B7: C2 antibody (antibody, human IgG1, lambda, V domains shown)
VH: not shown
VL: NFMLTQPHSVSESPGKTVTISCTRSSGSIEDKYVQWYQQRPGSSPTIVIYYDNERPSGVPDRFSGSIDSSSNSASLTISGLKTEDEADYYCQTYDQSLYGWVFGGGTKLTVLG
notes: anti-CD19, IgG, lambda; also called L7B7_C2; L7B7_c2
With B7, in [8], the “EC50 (read off the curve)” value was about 0.4 nM. Besides, in [9], the binding result is reported as “no binding (tested: 10 µg/ml)”.

B8: C9 antibody (antibody, human IgG1, lambda, V domains shown)
VH: not shown
VL: B7 VL with E30A, Q96E
notes: anti-CD19, IgG, lambda; also called L7B7_C9
Take B8: in experiment [10], the binding result is given as “binds”.

B9: A6 antibody (antibody, human IgG1, lambda, V domains shown)
VH: not shown
VL: B7 VL with E30G, Q96E
notes: anti-CD19, IgG, lambda; also called L7B7_A6
As to B9, in experiment [10], the binding result is given as “binds”.

B10: C6 antibody (antibody, human IgG1, lambda, V domains shown)
VH: not shown
VL: B7 VL with E30N, Y51F, Q96T
notes: anti-CD19, IgG, lambda; also called L7B7 C6
Consider B10, for which the binding result in experiment [10] was “binds”.

B11: B11 antibody (antibody, human IgG1, lambda, V domains shown)
VH: not shown
VL: B7 VL with Q96N
notes: anti-CD19, IgG, lambda; also called L7B7_B11
For the molecule B11, in experiment [10], the binding result was “binds”.

B12: 5A3M5xC2 (bispecific antibody, human IgG1, kappa, lambda)
common heavy chain: not shown
kappa light chain (5A3-M5, anti-CD47): not shown
lambda light chain (C2, anti-CD19): NFMLTQPHSVSESPGKTVTISCTRSSGSIEDKYVQWYQQRPGSSPTIVIYYDNERPSGVPDRFSGSIDSSSNSASLTISGLKTEDEADYYCQTYDQSLYGWVFGGGTKLTVLGQPKAAPSVTLFPPSSEELQANKATLVCLISDFYPGAVTVAWKADSSPVKAGVETTTPSKQSNNKYAASSYLSLTPEQWKSHRSYSCQVTHEGSTVEKTVAPTECS
notes: also called CD47xCD19 BsAb 5A3M5xC2; bispecific antibody 5A3-M5×C2
On to B12, for which the binding result in [11] and in experiment [12] was “binds” in each case.

B13: Ke8G11xC2 (bispecific antibody, human IgG1, kappa, lambda)
common heavy chain: not shown
kappa light chain (Ke8G11, anti-CD47): DIQMTQSPSSLSASVGDRVTITCRASQSIGRYLNWYQQKPGKAPKLLIYAASSLQSGVPSRFSGSGSGTDFTLTISSLQPEDFATYYCQQMHPRGPKTFGQGTKVEIKRTVAAPSVFIFPPSDEQLKSGTASVVCLLNNFYPREAKVQWKVDNALQSGNSQESVTEQDSKDSTYSLSSTLTLSKADYEKHKVYACEVTHQGLSSPVTKSFNRGEC
lambda light chain (C2, anti-CD19): B12 lambda light chain (C2, anti-CD19)
notes: also called CD47xCD19 BsAb Ke8G11xC2; bispecific antibody Ke8G11×C2
Regarding B13, the binding result in experiment [12] is reported as “binds”.

B14: Ka3xC2 (bispecific antibody, human IgG1, kappa, lambda)
common heavy chain: not shown
kappa light chain (Ka3, anti-CD47): not shown
lambda light chain (C2, anti-CD19): B12 lambda light chain (C2, anti-CD19)
notes: m75 has the same CD47 arm but no named CD19 arm; also called CD47xCD19 BsAb Ka3xC2; bispecific antibody Ka3×C2
In the case of B14, the binding result in [11] and in experiment [12] was “binds” in each case.

B15: 5A3M3xC2 (bispecific antibody, human IgG1, kappa, lambda)
common heavy chain: not shown
kappa light chain (5A3-M3, anti-CD47): not shown
lambda light chain (C2, anti-CD19): B12 lambda light chain (C2, anti-CD19)
notes: m69 has the same CD47 arm but no named CD19 arm; also called bispecific antibody 5A3-M3×C2
As for B15, in experiment [13], the binding result is listed as “binds”.

For orientation: Kd means the concentration at which binding is half-saturated. Broadly, the EC50 (read off the curve) is the concentration giving half of the maximal effect.

These data come from patent publication US20240400720A1 (NOVIMMUNE S A, published 2024).
